Consider 94 variants from the supplement of paper PMC10567573.

To fix the notation:
B1: USP39 (parent)
chain: FQGSMRIFTKKLPHPDLPAEEKEQ
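Also: lentivirally expressed fusions sorted by FACS into six bins by GFP to DsRed ratio, PSI derived from sequencing read proportions per bin multiplied by bin number.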

In the data set the parent is B1. Put plainly: protein stability index of a GFP-peptide fusion (GPS, HEK-293T) (PSI 1-6); higher = more stable. The following applies: c terminus: a fixed tail appended.
As for FQGSMRIFTKKLPLPDLPAEEKEQ [H14L], the protein stability index turned out to be 2.36.
On to FQGSMRIFTKKLPKPDLPAEEKEQ [H14K], for which the protein stability index came out at 1.77.
Consider FQGSMRIFTKKLPAPDLPAEEKEQ [H14A], for which the protein stability index stood at 1.9.
In the case of FQGSMRIFTKKLPPPDLPAEEKEQ [H14P], the protein stability index was 1.86.
Regarding FQGSMRIFTKKLPSPDLPAEEKEQ [H14S], the protein stability index was 1.65.
Next, FQGSMRIFTKKLPMPDLPAEEKEQ [H14M]: 2.36; FQGSMRIFTKKLPDPDLPAEEKEQ [H14D]: 2.18.
Next, FQGSMRIFTKKLPVPDLPAEEKEQ [H14V]: 1.88.
Regarding FQGSMRIFTKKLPFPDLPAEEKEQ [H14F], the protein stability index stood at 1.92.
Next, FQGSMRIFTKKLPCPDLPAEEKEQ [H14C]: 2.27; FQGSMRIFTKKLPWPDLPAEEKEQ [H14W]: 1.99; FQGSMRIFTKKLPRPDLPAEEKEQ [H14R]: 1.93.
In the case of FQGSMRIFTKKLPEPDLPAEEKEQ [H14E], the protein stability index amounted to 2.05.
In the case of FQGSMRIFTKKLPIPDLPAEEKEQ [H14I], the protein stability index amounted to 1.84.
Turning to FQGSMRIFTKKLPYPDLPAEEKEQ [H14Y], the protein stability index stood at 1.8.
FQGSMRIFTKKLPTPDLPAEEKEQ [H14T]: the protein stability index is 2.36.
Consider FQGSMRIFTKKLPGPDLPAEEKEQ [H14G], for which the protein stability index is 1.77.
On to FQGSMRIFTKKLPQPDLPAEEKEQ [H14Q], for which the protein stability index came to 1.78.
FQGSMRIFTKKLPNPDLPAEEKEQ [H14N]: the protein stability index amounted to 1.94.
On to FQGSMRIFTKKLNHPDLPAEEKEQ [P13N], for which the protein stability index amounted to 2.35.
Regarding FQGSMRIFTKKLRHPDLPAEEKEQ [P13R], the protein stability index turned out to be 2.17.
As to FQGSMRIFTKKLYHPDLPAEEKEQ [P13Y], the protein stability index came out at 1.62.
On to FQGSMRIFTKKLLHPDLPAEEKEQ [P13L], for which the protein stability index amounted to 1.65.
Next, FQGSMRIFTKKLVHPDLPAEEKEQ [P13V]: 1.75.
Consider FQGSMRIFTKKLQHPDLPAEEKEQ [P13Q], for which the protein stability index came to 1.9.
For the variant FQGSMRIFTKKLMHPDLPAEEKEQ [P13M], the protein stability index amounted to 2.12.
Consider FQGSMRIFTKKLTHPDLPAEEKEQ [P13T], for which the protein stability index worked out at 1.68.
For FQGSMRIFTKKLHHPDLPAEEKEQ [P13H], the protein stability index was 2.4.
Take FQGSMRIFTKKLIHPDLPAEEKEQ [P13I]: the protein stability index was determined as 1.86.
On to FQGSMRIFTKKLKHPDLPAEEKEQ [P13K], for which the protein stability index stood at 2.15.
Turning to FQGSMRIFTKKLGHPDLPAEEKEQ [P13G], the protein stability index is 2.1.
The same measure for FQGSMRIFTKKLSHPDLPAEEKEQ [P13S]: 1.61.
With FQGSMRIFTKKLWHPDLPAEEKEQ [P13W], the protein stability index amounted to 3.08.
As for FQGSMRIFTKKLPHPDDPAEEKEQ [L17D], the protein stability index is 2.32.
Take FQGSMRIFTKKLPHPDFPAEEKEQ [L17F]: the protein stability index is 2.36.
Next, FQGSMRIFTKKLPHPDNPAEEKEQ [L17N]: 2.26; FQGSMRIFTKKLPHPDAPAEEKEQ [L17A]: 1.99.
Next, FQGSMRIFTKKLPHPDQPAEEKEQ [L17Q]: 2.34; FQGSMRIFTKKLPHPDTPAEEKEQ [L17T]: 2.1; FQGSMRIFTKKLPHPDWPAEEKEQ [L17W]: 2.06.
Next, FQGSMRIFTKKLPHPDIPAEEKEQ [L17I]: 1.89; FQGSMRIFTKKLPHPDPPAEEKEQ [L17P]: 1.96; FQGSMRIFTKKLPHPDSPAEEKEQ [L17S]: 1.95.
With FQGSMRIFTKKLPHPDYPAEEKEQ [L17Y], the protein stability index is 2.5.
On to FQGSMRIFTKKLPHPDEPAEEKEQ [L17E], for which the protein stability index is 2.24.
For the variant FQGSMRIFTKKLPHPDCPAEEKEQ [L17C], the protein stability index was 2.33.
On to FQGSMRIFTKKLPHPDGPAEEKEQ [L17G], for which the protein stability index came to 2.19.
For the variant FQGSMRIFTKKLPHPDMPAEEKEQ [L17M], the protein stability index was 1.95.
On to FQGSMRIFTKKLPHPDRPAEEKEQ [L17R], for which the protein stability index came out at 1.9.
Take FQGSMRIFTKKLPHPDHPAEEKEQ [L17H]: the protein stability index worked out at 1.92.
With FQGSMRIFTKKLPHPDKPAEEKEQ [L17K], the protein stability index is 1.66.
With FQGSMRIFTKKLPHPDVPAEEKEQ [L17V], the protein stability index was determined as 1.88.
For FQGSMRIFTKKLPHPDLDAEEKEQ [P18D], the protein stability index was found to be 1.93.
Regarding FQGSMRIFTKKLPHPDLCAEEKEQ [P18C], the protein stability index is 1.83.
As for FQGSMRIFTKKLPHPDLAAEEKEQ [P18A], the protein stability index amounted to 2.07.
As to FQGSMRIFTKKLPHPDLEAEEKEQ [P18E], the protein stability index is 1.8.
Take FQGSMRIFTKKLPHIDLPAEEKEQ [P15I]: the protein stability index stood at 1.75.
Next, FQGSMRIFTKKLPHVDLPAEEKEQ [P15V]: 1.62; FQGSMRIFTKKLPHMDLPAEEKEQ [P15M]: 2.1.
As for FQGSMRIFTKKLPHNDLPAEEKEQ [P15N], the protein stability index came out at 2.41.
As to FQGSMRIFTKKLPHHDLPAEEKEQ [P15H], the protein stability index amounted to 2.15.
In the case of FQGSMRIFTKKLPHDDLPAEEKEQ [P15D], the protein stability index was 1.73.
Next, FQGSMRIFTKKLPHQDLPAEEKEQ [P15Q]: 1.74; FQGSMRIFTKKLPHCDLPAEEKEQ [P15C]: 1.64.
For FQGSMRIFTKKLPHYDLPAEEKEQ [P15Y], the protein stability index came to 1.34.
As for FQGSMRIFTKKLPHFDLPAEEKEQ [P15F], the protein stability index was 2.14.
For the variant FQGSMRIFTKKLPHGDLPAEEKEQ [P15G], the protein stability index stood at 1.92.
Turning to FQGSMRIFTKKLPHEDLPAEEKEQ [P15E], the protein stability index was 2.19.
In the case of FQGSMRIFTKKLPHKDLPAEEKEQ [P15K], the protein stability index was determined as 1.76.
The same measure for FQGSMRIFTKKLPHSDLPAEEKEQ [P15S]: 1.94; for FQGSMRIFTKKLPHRDLPAEEKEQ [P15R]: 2.03; for FQGSMRIFTKKLPHWDLPAEEKEQ [P15W]: 1.48.
With FQGSMRIFTKKLPHLDLPAEEKEQ [P15L], the protein stability index came to 1.85.
In the case of FQGSMRIFTKKLPHTDLPAEEKEQ [P15T], the protein stability index is 1.93.
As to FQGSMRIFTKKLPHADLPAEEKEQ [P15A], the protein stability index was determined as 1.92.
On to FQGSMRIFTKKLPHPCLPAEEKEQ [D16C], for which the protein stability index was found to be 1.54.
Consider FQGSMRIFTKKLPHPYLPAEEKEQ [D16Y], for which the protein stability index turned out to be 2.18.
Regarding FQGSMRIFTKKLPHPFLPAEEKEQ [D16F], the protein stability index came to 2.16.
For FQGSMRIFTKKLPHPSLPAEEKEQ [D16S], the protein stability index was 1.85.
As for FQGSMRIFTKKLPHPRLPAEEKEQ [D16R], the protein stability index came to 2.17.
Next, FQGSMRIFTKKLPHPQLPAEEKEQ [D16Q]: 2.19; FQGSMRIFTKKLPHPPLPAEEKEQ [D16P]: 1.73.
With FQGSMRIFTKKLPHPTLPAEEKEQ [D16T], the protein stability index came to 2.64.
Turning to FQGSMRIFTKKLPHPLLPAEEKEQ [D16L], the protein stability index was determined as 2.3.
With FQGSMRIFTKKLPHPNLPAEEKEQ [D16N], the protein stability index amounted to 2.37.
With FQGSMRIFTKKLPHPGLPAEEKEQ [D16G], the protein stability index was found to be 1.97.
For the variant FQGSMRIFTKKLPHPMLPAEEKEQ [D16M], the protein stability index was determined as 1.76.
Consider FQGSMRIFTKKLPHPILPAEEKEQ [D16I], for which the protein stability index worked out at 2.13.
The same measure for FQGSMRIFTKKLPHPWLPAEEKEQ [D16W]: 2.67.
For FQGSMRIFTKKLPHPALPAEEKEQ [D16A], the protein stability index is 1.7.
Next, FQGSMRIFTKKLPHPVLPAEEKEQ [D16V]: 1.99.
For the variant FQGSMRIFTKKLPHPKLPAEEKEQ [D16K], the protein stability index stood at 1.94.
FQGSMRIFTKKLPHPELPAEEKEQ [D16E]: the protein stability index was 2.18.
The same measure for FQGSMRIFTKKLPHPHLPAEEKEQ [D16H]: 2.12.
